These results are taken from US20190203174A1.

Assay [1] addresses FVIII-2191-2220 presented on HLA-DR1 by irradiated DR1-PBMCs (human). Description: cell-based or functional assay.
Assay [2] deals with PE-labeled DR1 tetramers loaded with FVIII-2191-2220 (human) (UniProt P01903). Description: flow cytometry, DR1 tetramer staining of transduced CD4 T cells. A general note: Flow cytometry measures light scatter and fluorescence of single cells or particles in a stream.
Assay [3] has the same target. The assay is described as follows: flow cytometry, DR1 tetramer staining of transduced naïve CD4 T cells.
Assay [4] shares this target. Description: flow cytometry, PE-labeled DR1 tetramer staining of peptide-expanded transduced T effectors.

B1: FVIII C2-specific human T cell receptor (TCR17195) (TCR)
chain: RQVARVIVFLTLSTLSLAKTTQPISMDSYEGQEVNITCSHNNIATNDYITWYQQFPSQGPRFIIQGYKTKVTNEVASLFIPADRKSSTLSLPRVSLSDTAVYYCLVGDAPNSGNTPLVFGKGTRLSVIANIQNPDPAVYQLRDSKSSDKSVCLFTDFDSQTNVSQSKDSDVYITDKTVLDMRSMDFKSNSAVAWSNKSDFACANAFNNSIIPEDTFFPSPESSCDVKLVEKSFETDTNLNFQNLSVIGFRILLLKVAGFNLLMTLRLWSSRAKRGSGATNFSLLKQAGDVEENPGPMLLLLLLLGPGSGLGAVVSQHPSRVICKSGTSVKIECRSLDFQATTMFWYRQFPKKSLMLMATSNEGSKATYEQGVEKDKFLINHASLTLSTLTVTSAQPEDSSFYICSAHTRANYGYTFGSGTRLTVVEDLNKVFPPEVAVFEPSEAEISHTQKATLVCLATGFFPDHVELSWWVNGKEVHSGVSTDPQPLKEQPALNDSRYCLSSRLRVSATFWQNPRNHFRCQVQFYGLSENDEWTQDRAKPVTQIVSAEAWGRADCGFTSVSYQQGVLSATILYEILLGKATLYAVLVSALVLMAMVKRKDF
On to B1, for which, in assay [1], the expansion of GFP cells against culture with pOVA was 50 fold; the proliferation of GFP cells (dye dilution, 4 days) was 100%; the proportion of GFP cells after culture with FVIII-2191-2220 was in the range of 61 to 81%. In addition, the fold tetramer staining intensity over non-specific tetramer staining in assay [2] is above 10 fold. In assay [3], this molecule yielded a percent tetramer+ of the total CD4 population of 0.2% and a percent tetramer+ of the transduced cells below 5%. Also, the percent tetramer+ in assay [4] was 24%.
